# Experimental data taken from publication PMC7540478.
# What was measured:
# [1] = substrate: O=P(O)(O)O[C@H]1O[C@H](CO)[C@@H](O)[C@H](O)[C@H]1O; test: purified protein; details: 2 M glycerol as acceptor, 50 mM MES pH 7.0, 30 °C
# [2] = substrate: OC[C@H]1O[C@@](CO)(O[C@H]2O[C@H](CO)[C@@H](O)[C@H](O)[C@H]2O)[C@@H](O)[C@@H]1O; test: purified protein; details: 2 M glycerol as acceptor, 50 mM MES pH 7.0, 30 °C
protein,measurement,setting,value
LmSucP (Leuconostoc mesenteroides) (protein) MEIQNKAMLITYADSLGKNLKDVHQVLKEDIGDAIGGVHLLPFFPSTGDRGFAPADYTRVDAAFGDWADVEALGEEYYLMFDFMINHISRESVMYQDFKKNHDDSKYKDFFIRWEKFWAKAGENRPTQADVDLIYKRKDKAPTQEITFDDGTTENLWNTFGEEQIDIDVNSAIAKEFIKTTLEDMVKHGANLIRLDAFAYAVKKVDTNDFFVEPEIWDTLNEVREILTPLKAEILPEIHEHYSIPKKINDHGYFTYDFALPMTTLYTLYSGKTNQLAKWLKMSPMKQFTTLDTHDGIGVVDARDILTDDEIDYASEQLYKVGANVKKTYSSASYNNLDIYQINSTYYSALGNDDAAYLLSRVFQVFAPGIPQIYYVGLLAGENDIALLESTKEGRNINRHYYTREEVKSEVKRPVVANLLKLLSWRNESPAFDLAGSITVDTPTDTTIVVTRQDENGQNKAVLTADAANKTFEIVENGQTVMSSDNLTQN,Km,[1],12.5 ± 1.7 mM
same,kcat,[1],36 ± 3 s⁻¹
same,Km,[2],1.4 ± 0.1 mM
